Positions count from the first letter of the chain named. Numbers in names are those of the source. Like-named read-outs stand apart in the source and are kept apart here.

Series [1] addresses T1, TGA3 NID (Arabidopsis thaliana, UniProt Q39234).
T1 sequence (Q39234 160-384): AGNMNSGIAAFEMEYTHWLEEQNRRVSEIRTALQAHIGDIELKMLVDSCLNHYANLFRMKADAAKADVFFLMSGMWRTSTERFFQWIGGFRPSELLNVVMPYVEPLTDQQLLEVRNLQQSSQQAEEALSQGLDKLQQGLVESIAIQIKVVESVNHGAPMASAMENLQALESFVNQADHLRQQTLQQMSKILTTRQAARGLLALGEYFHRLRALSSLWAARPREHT
Briefly: X-ray crystal structure. It is filed as binding. As to conditions: co-purified from E. coli expression; crystals at pH 5.0, 20 °C.

Series [2] concerns the molecule itself. Briefly: oxidation with hydrogen peroxide, non-reducing SDS–PAGE.
The target of series [3] is T2, Full-length Arabidopsis thaliana NPR1 (NPR1–Strep, insect cells) (Arabidopsis thaliana), P93002.
T2 chain: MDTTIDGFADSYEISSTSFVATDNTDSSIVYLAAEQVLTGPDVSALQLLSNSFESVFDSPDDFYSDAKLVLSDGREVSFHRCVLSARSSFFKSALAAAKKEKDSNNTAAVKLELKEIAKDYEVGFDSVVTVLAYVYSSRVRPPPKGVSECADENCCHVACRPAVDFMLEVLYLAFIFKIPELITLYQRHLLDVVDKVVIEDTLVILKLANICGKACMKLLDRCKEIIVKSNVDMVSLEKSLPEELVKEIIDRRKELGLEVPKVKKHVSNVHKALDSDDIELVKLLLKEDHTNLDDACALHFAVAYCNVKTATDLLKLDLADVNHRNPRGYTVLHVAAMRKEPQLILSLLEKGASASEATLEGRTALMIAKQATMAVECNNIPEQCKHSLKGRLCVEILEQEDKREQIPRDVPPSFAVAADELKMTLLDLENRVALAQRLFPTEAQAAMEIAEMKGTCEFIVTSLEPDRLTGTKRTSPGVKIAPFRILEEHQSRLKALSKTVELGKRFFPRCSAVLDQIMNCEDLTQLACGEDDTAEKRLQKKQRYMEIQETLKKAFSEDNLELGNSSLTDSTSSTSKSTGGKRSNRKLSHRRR
Briefly: cross-linking. The settings on record: remark: other sources report otherwise.

Series [4] deals with TGA3;NPR1 (Arabidopsis thaliana;Arabidopsis …, UniProt Q39234;P93002 87-384;1-593, |). Briefly: EMSA. For orientation: Mobility shift assays separate free from complexed probe on a gel.
The target of series [5] is T3, TGA3 (Arabidopsis thaliana, UniProt Q39234 87-384).
T3 sequence: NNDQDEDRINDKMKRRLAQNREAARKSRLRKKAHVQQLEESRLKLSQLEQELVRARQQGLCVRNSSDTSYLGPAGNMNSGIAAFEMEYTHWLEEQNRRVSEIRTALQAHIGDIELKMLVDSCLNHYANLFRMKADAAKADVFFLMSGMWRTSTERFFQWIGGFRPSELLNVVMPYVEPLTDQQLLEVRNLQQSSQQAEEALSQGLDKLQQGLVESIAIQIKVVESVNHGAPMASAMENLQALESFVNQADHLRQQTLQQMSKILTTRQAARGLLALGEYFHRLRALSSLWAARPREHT
In words: EMSA.

Series [6] has as its target NPR1 (Arabidopsis thaliana, UniProt P93002 1-593). Briefly: EMSA.
For series [7], the target named is T4, Full-length Arabidopsis NPR1 (NPR1–Strep3, E. coli) (Arabidopsis thaliana, UniProt P93002 1-593).
T4 sequence (looked up): T2 chain
In words: cryo-EM structure.

Series [8] has as its target T3, TGA3. In words: EMSA. The source holds these as a separate data set.

On to `CCCCCCCCCCCCCCCC(=O)O` [palmitic acid], for which the “X-ray crystal structure (1.5 Å); LC-ESI/MS of extracted lipid” value in series [1] was “a palmitic acid was found inside the NID”.

B1: NPR1 BTB/BHB (Thr39–Lys262) npr1(C82A) (domain or fragment, Arabidopsis thaliana, UniProt P93002 39-262, looked up)
chain: TGPDVSALQLLSNSFESVFDSPDDFYSDAKLVLSDGREVSFHRAVLSARSSFFKSALAAAKKEKDSNNTAAVKLELKEIAKDYEVGFDSVVTVLAYVYSSRVRPPPKGVSECADENCCHVACRPAVDFMLEVLYLAFIFKIPELITLYQRHLLDVVDKVVIEDTLVILKLANICGKACMKLLDRCKEIIVKSNVDMVSLEKSLPEELVKEIIDRRKELGLEVPK
Consider B1, for which the binding result in series [2] is reported as “binds”.

B2: WT NPR1 BTB/BHB (Thr39–Lys262) (domain or fragment, Arabidopsis thaliana, UniProt P93002 39-262, looked up)
chain: B1 chain with A44C
With B2, in series [2], the binding result is listed as “binds”.

B3: NPR1 BTB/BHB (Thr39–Lys262) npr1(C212V/C216A/C223L) (domain or fragment, Arabidopsis thaliana, UniProt P93002 39-262, looked up)
chain: B1 chain with A44C, C174V, C178A, C185L
Take B3: the binding result in series [2] is listed as “binds”.

B4: Full-length Arabidopsis thaliana NPR1 (NPR1–Strep, insect cells), P93002 1-593 (natural protein)
chain: T2 chain
B4 gave a stoichiometry N in series [3] of 2.

B5: LS5/LS7 (dsDNA)
DNA 1: GGGCTATGACGTAAGTAAAATAGTGACGTAGAGAGGG
DNA 2: CCCTCTCTACGTCACTATTTTACTTACGTCATAGCCC
For the molecule B5, the values for the binding result in series [4], in series [5] and in series [6] were “binds”, “binds” and “no binding”, respectively.

B6: Arabidopsis TGA3 (Asn87–Thr384) (domain or fragment, Arabidopsis thaliana, UniProt Q39234 87-384, looked up)
chain: T3 sequence
With B6, the binding result in series [7] is on record as “binds”.

B7: LS5-/LS7- (dsDNA)
DNA 1: GGGCTAAAAAAAAAGTAAAATAGAAAAAAAAAGAGGG
DNA 2: CCCTCTTTTTTTTTCTATTTTACTTTTTTTTTAGCCC
Take B7: the binding result in series [8] is on record as “no binding”.

The term stoichiometry N denotes a count of units in the complex or per binding partner.
